Results on 10 molecules are retold here after patent US20240245805A1 (Orna Therapeutics, Inc., priority 2020, published 2024).

The chains are these.
B1: Feline infectious peritonitis virus (nucleic acid)
chain: ACTTTTAAAGTAAAGTGAGTGTAGCGTGGCTATAACTCTTCTTTTACTTTAACTAGCCTTGTGCTAGATTTGTCTTCGGACACCAACTCGAACTAAACGAAATATTTGTCTCTCTATGAAACCATAGAAGACAAGCGTTGATTATTTCACCAGTTTGGCAATCACTCCTAGGAACGGGGTTGAGAGAACGGCGCACCAGGGTTCCGTCCCTGTTTGGTAAGTCGTCTAGTATTAGCTGCGGCGGTTCCGCCCGTCGTAGTTGGGTAGACCGGGTTCCGTCCTGTGATCTCCCTCGCCGGCCGCCAGGAGA
modifications: lipid formulation; source: /note="Description of Unknown: Feline infectious peritonitis virus sequence"
B2: Poecivirus BCCH-449 (nucleic acid, listed as Poecivirus sp.)
DNA: ACTACACAATCGCAACACGCGCAAGTTTGTAGTTTGATTGGCGTGCAAATGTCAAATCAAGCATATAACACAATTTGGTGGCTGTTGGTGTTTGTTATAGGAATTTTGGTTGTGTTGAAATTGTGGATGTGTAGGAAATATGCACAATTACGTCAGCGTCAGGAGTTTTATAACCTGGCGCAACACCAAAATGGTCTTCGCGCTTTAACATCACCAGCGAGGTGTAAACAAATTGAAGTTGAATTAGATCGTGTATAGGCCAGGGAACCATCCCTCCCAACGCCACATCTTGTGGGGAAGTTGGGATAATGGTGGGTCTATATGAATTGGTCTGTAGACCCACAGTGAAGAGTGAATAGTATGCTTGCGGTTCCATTTGTTAATGGTCTAGCATGGGTGGGGGCGGCAACCCCGTGAGGGGTTCCCCACTGGCCAAAAGCCCAGGGGTTAGTCATTTCAACCAAGGAAGCTGGTAACCTGGTGACCTGAACTTGAGTGGTGAGACCCCCTTGCTAGAGTGTGTAAACCGATTGTAAGCATTTTGTTTGCTTAGTATCTGTGGTATAAGCAGTCAATTTTGTATAGGCTCAAGGCTGTGGTAGTTAGTAGATGCCCGGAAGGTTATTACTGATCCGGGGACCGTGACTATACATTAGGTAAACCGGTTTAAAAACC
modifications: lipid formulation
B3: Grapevine associated narnavirus-1 (nucleic acid, listed as Narnavirus sp.)
chain: GCCCGGGGGGTGCAGTCCTGTGAAAGGGTCTGCACCATACTATATATGTATATGATTACATCCCAAAAGGCGACTTCGTTCAGGTTTTAAATCTGACGTAGGTCCAGTAAATAAGCATGTCAAAACATGTAAGTTTATCCTGTAATCTACTCTCATAAGATGAGATAAGATGATATTGCAGTTCCCATGTAAATAAATCCATTATGAATTCATTCATATAAGGTAGAAGTGGTAACTATGGTTGAAACATTAATATAAAACGGTCATTTTGCATGAACGTCATTAAGGAACTGGCATACCAATGTCTATTTAGTGACTATGATATTTAGAGTATCCCTTATATTAATTAACAATTATTCCTTTTAGCATATCATCCGACAACAAATTTTAAAAGAAGAAATATTACTCATTAAAA
modifications: lipid formulation
B4: Hubei zhaovirus-like virus 1 (nucleic acid)
DNA: GTGCAGGATGGCCTTTCCCATCTTAAGTGGTTTGTAGGATTTCGTGGGTCCATACCCCCCGATTTCTTGGTACGTATTCCATGCACGGAGAATACGACCAAAACTCTTATTTCAAAAAATATTATTTTTTACTCTTGTGGGCTGAGTGCGACCCACCAGTTCCAGCTTAGCAACCTGGAAGTTGTTGGAGATTTATGGAACCAAATTACACATGCGTGGAGTGCCGCCACTCCGTATCTGTTCACTCATTACGCGATTAAGTTCTGCGACGAGACGAGCGAA
modifications: source: /note="Description of Unknown: Hubei zhaovirus-like virus 1 sequence"
B5: Human TMEV-like cardiovirus (nucleic acid, listed as Cardiovirus sp.)
DNA: TCCGACGTGGTTGGAATTAACATCTTTTCCGACGAAAGTGCTATTATGCCTCCCCGATTGTGTGATGCTTTCTGCCCTGCTGGGCGGAGCGTCCTCGGGTTGAGAAACCTTGAATCTTTTCCTTTGGAGCCTTGGCTCCCCCGGTCTAAGCCGCTTGGAATATGACAGGGTTATTTTCCAAACTCTTTATTTCTACTTTCATGGGTTCTATCCATGAAAAGGGTATGTGTTGCCCCTTCCTTCTTTGGAGAATCTGCGCGGCGGTCTTTCCGTCTCTCAACAGGCGTGGATGCAACATGCCGGAAACGGTGAAGAAAACAGTTTTCTGTGGAAATTTAGAGTGGACATCGAAACAGCTGTAGCGACCTCACAGTAGCAGCGGATTCCCCTCTTGGCGACAAGAGCCTCTGCGGCCAAAAGCCCCGTGGATAAGATCCACTGCTGTGAGCGGTGCAACCCCAGCACCCTGGTTCGATGGCCATTCTCTATGGAACCAGAAAATGGTTTTCTCAAGCCCTCCGGTAGAGAAGCCAAGAATGTCCTGAAGGTACCCCGCGCGCGGGATCTGATCAGGAGACCAATTGGCAGTGCTTTACGCTGCCACTTTGGTTTAAAAACTGTCACAGCTTCTCCAAACCAAGTGGTCTTGGTTTTCCAATTTTGTTGACTGACAAT
B6: Guereza hepacivirus (nucleic acid, listed as Hepacivirus sp.)
chain: CACTCAATACTACACTCCGCATTTGGGGAGAAGCGCTGGCGTTCGCGGAACCGCGTTAACCATACGCGTAGTACGAGTGCGACAGACCCCGGTGCTACTGGTGGTAGCGAGACACGAGCCGAAGTCTGTGGGGGGAACTCCACTTAGAGGGCATGCCCGGGCGTAGGCTTCTGAGTTGGGATGGGCCCCAACTTGGCCCCTGAGTGGGGGGGTGTTACGACCTGATAGGGTGCGGGCTGGCGCCTACCACTTTCCAGTCGTACATGAGTC
modifications: lipid formulation
B7: Human rhinovirus 1 (nucleic acid, listed as Rhinovirus sp.)
DNA: TTAAAACTGGGTGTGGGTTGTTCCCACCCACACCACCCAATGGGTGTTGTACTCTGTTATTCCGGTAACTTTGTACGCCAGTTTTTCCCTCCCCTCCCCATCCTTTTACGTAACTTAGAAGTTTTAAATACAAGACCAATAGTAGGCAACTCTCCAGGTTGTCTAAGGTCAAGCACTTCTGTTTCCCCGGTTGATGTTGATATGCTCCAACAGGGCAAAAACAACAGATACCGTTATCCGCAAAGTGCCTACACAGAGCTTAGTAGGATTCTGAAAGATCTTTGGTTGGTCGTTCAGCTGCATACCCAGCAGTAGACCTTGCAGATGAGGCTGGACATTCCCCACTGGTAACAGTGGTCCAGCCTGCGTGGCTGCCTGCGCACCTCTCATGAGGTGTGAAGCCAAAGATCGGACAGGGTGTGAAGAGCCGCGTGTGCTCACTTTGAGTCCTCCGGCCCCTGAATGCGGCTAACCTTAAACCTGCAGCCATGGCTCATAAGCCAATGAGTTTATGGTCGTAACGAGTAATTGCGGGATGGGACCGACTACTTTGGGTGTCCGTGTTTCACTTTTTCCTTTATTAATTGCTTATGGTGACAATATATATATTGATATATATTGGCATC
B8: Farmington virus (nucleic acid)
chain: ACGACGCATAAGCAGAGAAACATAAGAGACTATGTTCATAGTCACCCTGTATTCATTATTGACTTTTATGACCTATTATTAGACCCTTCACGGGTAAATCCTTCTCCTTGCAGTTCTCGCCAAGTACCTCCAAAGTCAGAACG
modifications: lipid formulation; source: /note="Description of Unknown: Farmington virus sequence"
B9: Goat torovirus (nucleic acid, listed as Torovirus sp.)
chain: GTACTTACAAGCGGGTTAAACCGCCCTCCGGAACGGTTACAACCCCCTCCCGAACGTGCGCTTGACGTGACTGGTTCTCAGTCTGGCTTTCTGAGAAATACTCCAGGGTTGTATCCCACCATCTTGACCTCTGGTCATTTTGGTAACACCATAACCAAACAAACTCTACACACCTAACCCACCTCCAGCTTGCTGCAGGCCTTTTGGACTAAACGGGTTTAGGTGTTTTGTGACCAACTCGTCTACCCACCTCCAGTTTTACTGCAGGCCTTTTTGGACTAAACGGCTTTAGACTTTTGTGGTTAGTTTTTAACTACCCACTGTTTAGCCGCCAACCTGATTTTCATTGTTGTAAAATTTTGTGTTTATACACTATTTTCATACGGTTGGCAGTTTGTTTGGTTGTTTGCACAGTTTTTGTTGATACCAATTTTTACTGTGCTTTTAGTGTATTCTGCTAAGGCTGTATTTTACATACTTAGTTTGGTTGAAGCAATTTTTACAACATTTATATTGTTTTTGATTTCTAAGGTAAAGAGTCTTAGGAAACACCATAGACGCCATTCTTGTGGTGTCTAGTTCCAACTAATCTGGCAAACAAGTACCAAGTCATTGACTCACTTTGGAGTGAGACTTACGAGTACCAATTTGCCTATTTCGGACATCCATATAAAG
modifications: lipid formulation
B10: Enterovirus AN12 (nucleic acid, listed as Enterovirus sp.)
chain: TACCGCTGCACCAGTGAGCTGGTACGCTAGTACCTTCGCACGGAGTAGATGGCATCCCCCACCCCGTAACTTAGAAGCAAAGTACACATCTGGCCAATAGTGGCGCTGCATCCAGCCGCGCAACGGTCAAGCACTTCTGTTTCCCCGGTCCGCAAGGGTCGTTATCCGCCCAGTCCACTACGGAAAGCCTACTAACCATTGAAGCTATCGAGAGGTTGCGCTCGGCCACGACCCCGGTGGTAGCTCTGAGTGATGGGGCTCGCAAACACCCCCGTGGTAACACGGATGCTTGCCCGCGCGTGCACTCGGGTTCAGCCTATTGGTTGTTCACCTCAACATAGTGTAAATGGCCAAGAGCCTACTGTGCTGGATTGGTTTTCCTCCGGAGCCGTGAATGCTGCTAATCCCAACCTCCGAGCGTGTGCGCACAATCCAGTGTTGCTACGTCGTAACGCGTAAGTTGGAGGCGGAACAGACTACTTTCGGTACTCCGTGTTTCTTTTGTTTTATTTTGAATTTTATGGTGACAATTGCTGAGATTTGCGAATTAGCGACTCTACCGCTGAACATTGCCCTGTACTACCTAATCGCATTTCACAAAACCTCAGAGATACCAAGCTCTTACATTGATCTGCTTGTTTTCCTGAATCTCAAATATAAATTGGAACAAGCAAA
modifications: lipid formulation

The data set concerns HEK293 cells. The class given is cell-based, human. The note with it: circular RNA encoding Gluc with the listed IRES (UTR truncated to 675 nt) transfected into HEK293 cells; supernatant after 24 hours.
As for B1, the “Expression (luminescence from secreted Gluc protein)” value (“Expression” for short) is 1.35E+05.

As to B2, the “Expression” value was 3.43E+05.

In the case of B3, the “Expression” value stood at 1.30E+05. Regarding B4, the “Expression” value was found to be 1.03E+05. The figure for B5 is 4.48E+07. The result for B6 reads 1.38E+05; that for B7, 7.40E+07.

In the case of B8, the “Expression” value was determined as 1.22E+05. Consider B9, for which the “Expression” value is 1.19E+05. The figure for B10 is 3.87E+06.
